In the supplement of paper PMC9112550, “Optimization of the antimicrobial peptide Bac7 by deep mutational scanning” (BMC Biology, 2022):

System: Escherichia coli TOP10
Assay: shrunken log2 fold change of peptide-encoding DNA abundance (4.5 h post-induction vs induction); higher = less antimicrobial activity (less host growth inhibition)
Settings: time post-induction: 4.5 h; library: site-saturation at positions 5, 18, 19, 20
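Note: peptides expressed intracellularly from a pBAD plasmid library in pooled LB shake-flask culture, induced with 0.3% L-arabinose, DNA abundance read by NGS, three biological replicates, DESeq2 with apeglm shrinkage.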

Row | Sequence | shrunken log2 fold change
1 | RRIRRRPPRLPRPRPRPGMYPRP | -0.0527
2 | RRIRTRPPRLPRPRPRPIAVPRP | -0.213
3 | RRIRRRPPRLPRPRPRPNNDPRP | -0.358
4 | RRIRVRPPRLPRPRPRPTLMPRP | 0.169
5 | RRIRLRPPRLPRPRPRPFTCPRP | -0.115
6 | RRIRRRPPRLPRPRPRPRMRPRP | 0.744
7 | RRIRDRPPRLPRPRPRPQLFPRP | -0.0901
8 | RRIRGRPPRLPRPRPRPRDHPRP | 0.978
9 | RRIRMRPPRLPRPRPRPWRNPRP | -0.00207
10 | RRIRWRPPRLPRPRPRPDPKPRP | -0.0134
11 | RRIRGRPPRLPRPRPRPSERPRP | 0.278
12 | RRIRQRPPRLPRPRPRPGRNPRP | -0.0272
13 | RRIRTRPPRLPRPRPRPGFPPRP | -0.0413
14 | RRIRCRPPRLPRPRPRPKSAPRP | 0.146
15 | RRIRGRPPRLPRPRPRPVFKPRP | 0.193
16 | RRIRVRPPRLPRPRPRPVLYPRP | -0.281
17 | RRIRNRPPRLPRPRPRPDRTPRP | -0.161
18 | RRIRCRPPRLPRPRPRPVYDPRP | -0.683
19 | RRIRWRPPRLPRPRPRPTIGPRP | 0.217
20 | RRIRVRPPRLPRPRPRPYKTPRP | 0.0577

Row | Sequence | shrunken log2 fold change
21 | RRIRQRPPRLPRPRPRPRNCPRP | 5
22 | RRIRFRPPRLPRPRPRPRSLPRP | 0.0152
23 | RRIRTRPPRLPRPRPRPAVHPRP | -0.0614
24 | RRIRCRPPRLPRPRPRPFCFPRP | -0.0725
25 | RRIRCRPPRLPRPRPRPIMQPRP | -0.193
26 | RRIRCRPPRLPRPRPRPNVEPRP | -0.216
27 | RRIRQRPPRLPRPRPRPWAYPRP | -0.11
28 | RRIRLRPPRLPRPRPRPTWRPRP | 0.337
29 | RRIRKRPPRLPRPRPRPCQWPRP | -0.0983
30 | RRIRMRPPRLPRPRPRPPVLPRP | -0.122
31 | RRIRMRPPRLPRPRPRPMDWPRP | 0.15
32 | RRIRKRPPRLPRPRPRPCKKPRP | -0.0301
33 | RRIRNRPPRLPRPRPRPEHAPRP | 0.0107
34 | RRIRCRPPRLPRPRPRPFIEPRP | 0.184
35 | RRIRIRPPRLPRPRPRPLQWPRP | -0.013
36 | RRIRKRPPRLPRPRPRPHQGPRP | 0.0968
37 | RRIRIRPPRLPRPRPRPRIHPRP | -0.287
38 | RRIRWRPPRLPRPRPRPQNEPRP | -0.18
39 | RRIRSRPPRLPRPRPRPYNMPRP | -0.817
40 | RRIRWRPPRLPRPRPRPILQPRP | 0.0247

Row | Sequence | shrunken log2 fold change
41 | RRIRNRPPRLPRPRPRPIKFPRP | -0.165
42 | RRIRGRPPRLPRPRPRPTPDPRP | 1.24
43 | RRIRPRPPRLPRPRPRPHYIPRP | -0.586
44 | RRIRFRPPRLPRPRPRPNWRPRP | -0.0764
45 | RRIRERPPRLPRPRPRPWGNPRP | -0.377
46 | RRIRRRPPRLPRPRPRPAHTPRP | 0.448
47 | RRIRTRPPRLPRPRPRPCQHPRP | 0.0626
48 | RRIRDRPPRLPRPRPRPWWVPRP | -0.335
49 | RRIRYRPPRLPRPRPRPQPPPRP | 0.163
50 | RRIRFRPPRLPRPRPRPYYQPRP | -0.203
51 | RRIRSRPPRLPRPRPRPKGKPRP | 0.0401
52 | RRIRNRPPRLPRPRPRPRCFPRP | -0.404
53 | RRIRCRPPRLPRPRPRPPQNPRP | 0.801
54 | RRIRWRPPRLPRPRPRPMKPPRP | -0.0125
55 | RRIRIRPPRLPRPRPRPPVEPRP | -0.0536
56 | RRIRNRPPRLPRPRPRPGTAPRP | -0.0363
57 | RRIRWRPPRLPRPRPRPKWTPRP | -0.119
58 | RRIRLRPPRLPRPRPRPCFPPRP | -0.206
59 | RRIRDRPPRLPRPRPRPRNRPRP | 0.0378
60 | RRIRDRPPRLPRPRPRPHTIPRP | -0.351
